Results published in publication PMC5095912.
Several values for one entry are separate records, joined by “and”; a condition that tells them apart may be missing. Equal entries are not always repeated.

Molecular target: PKA regulatory subunit RIIα (UniProt P12367)
Experiment: native MS; components mixed at equimolar (1:1) ratio in 200 mM NH4OAc, equilibrated at least 10 min at room temperature; nESI on a Synapt G2-Si, 2-5 uM sample; single proteins sprayed alone too; some C + R samples preincubated with staurosporine, K252a or AT13148 before PKI

**Q.** For “PKA regulatory subunit RIIα (from UniProt P12367 1-401) (natural protein)”, which stoichiometry N is on record?
**A.** 3 and 4 and 2
